Source: patent US20230048553A1 (AbbVie / Abbott, published 2023)
Changes are numbered by the printed parent chain.

B1: AC-264700 (antibody, V domains shown)
VH: EVQLVESGGGLVQPGGSLKLSCAASGFIFSNAVMYWVRQASGKGLEWVARIKTKFNNYATYYADSVKGRFTISRDDSKNMVYLQMNSLKTEDTAVYYCTAGDRNKPFAYWGQGTLVTVSS
VL: ETVVTQSPATLSLSPGERATLSCRASDSVITLLHWFQQKPGQAPRLLIHGASNLESRVPARFSGSGSGTDFTLTISSLEPEDFATYFCQQSWNDPYTFGQGTKLEIKR
B2: AC-277483 (antibody, V domains shown)
VH: B1 VH with S65A
VL: B1 VL with S28A
B3: ABBV-514 (antibody, human IgG1, kappa, V domains shown)
VH: B1 VH with S65A
VL: B1 VL with D27T
modifications: afucosylated N-glycan at ASN-300 (EU: ASN-297)
notes: Afucosylated humanized IgG1 kappa made in cells expressing Pseudomonas RMD
B4: AC-277371 (antibody, V domains shown)
VH: B1 VH with S65A
VL: B1 VL with D27G
B5: AC-277357 (fucosylated) (antibody, human IgG1, kappa, V domains shown)
VH: B1 VH with S65A
VL: B1 VL with D27T
notes: AC-264700 with LCDR1 D27→T. Human IgG1 kappa

Key:
[1] = molecular target: T1, human CCR8 (chemokine receptor 8) (human, UniProt P51685 1-355); assay: cell-based or functional assay
cynomolgus CCR8 [2] = molecular target: T2, cynomolgus CCR8 (cynomolgus monkey, UniProt G7NYJ2 1-355); assay: cell-based or functional assay
cynomolgus CCR8 [3] = molecular target: T2, cynomolgus CCR8; assay: flow cytometry on cyCCR8 Jurkat cells
Experimental: (§1) The candidate molecules were assessed for binding capacity using flow cytometry through known methods against overexpressed huCCR8 or cyCCR8 on the surface of Jurkat cells. The exemplary antibodies were tested for their ability to self-interact, bind to huCCR8 and cyCCR8, capacity for ADCC using the reporter bioassay, and non-specific binding to HEK293 cells. […] The AC-SINS self-interaction scores for each candidate was <1. At 100 μg/mL, non-specific binding maximums ranged from 97 to 144 GMFI. At 10 μg/mL, non-specific binding maximums ranged from 94-111 GFMI. At 1 μg/mL, non-specific binding maximums ranged from 87-102 GMFI.

[4] = molecular target: T1, human CCR8 (chemokine receptor 8); assay: flow cytometry on huCCR8 Jurkat cells
Experimental: as §1

[5] = molecular target: T1, human CCR8 (chemokine receptor 8); assay: cell-based or functional assay; remark: listed apart in the source
mouse CCR8 = molecular target: T3, mouse CCR8 (mouse, UniProt P56484 1-353, limits assumed); assay: not told
T3 sequence (looked up): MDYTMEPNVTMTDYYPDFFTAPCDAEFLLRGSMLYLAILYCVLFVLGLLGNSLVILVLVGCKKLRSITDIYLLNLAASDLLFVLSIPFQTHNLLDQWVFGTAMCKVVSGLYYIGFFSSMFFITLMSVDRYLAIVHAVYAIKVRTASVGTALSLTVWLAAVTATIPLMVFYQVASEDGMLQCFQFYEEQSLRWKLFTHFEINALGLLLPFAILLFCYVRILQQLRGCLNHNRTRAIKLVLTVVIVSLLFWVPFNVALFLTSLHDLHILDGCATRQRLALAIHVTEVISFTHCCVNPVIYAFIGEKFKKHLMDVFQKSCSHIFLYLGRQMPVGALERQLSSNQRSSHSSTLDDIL

rabbit CCR8 = molecular target: T4, rabbit CCR8 (rabbit, UniProt G1T2B2 1-355); assay: not told
T4 sequence: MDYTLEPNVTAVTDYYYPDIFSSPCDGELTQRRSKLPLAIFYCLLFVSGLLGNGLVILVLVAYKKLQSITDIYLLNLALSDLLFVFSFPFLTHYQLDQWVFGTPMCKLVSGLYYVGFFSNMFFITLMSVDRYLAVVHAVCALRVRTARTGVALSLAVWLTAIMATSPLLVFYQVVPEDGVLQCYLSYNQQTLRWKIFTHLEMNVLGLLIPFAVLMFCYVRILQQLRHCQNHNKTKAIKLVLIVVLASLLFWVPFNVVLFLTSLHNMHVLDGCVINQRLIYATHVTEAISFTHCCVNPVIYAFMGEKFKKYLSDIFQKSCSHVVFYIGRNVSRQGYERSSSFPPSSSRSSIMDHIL

rat CCR8 = molecular target: T5, rat CCR8 (rat, UniProt D4ADE0 1-353); assay: not told
T5 sequence: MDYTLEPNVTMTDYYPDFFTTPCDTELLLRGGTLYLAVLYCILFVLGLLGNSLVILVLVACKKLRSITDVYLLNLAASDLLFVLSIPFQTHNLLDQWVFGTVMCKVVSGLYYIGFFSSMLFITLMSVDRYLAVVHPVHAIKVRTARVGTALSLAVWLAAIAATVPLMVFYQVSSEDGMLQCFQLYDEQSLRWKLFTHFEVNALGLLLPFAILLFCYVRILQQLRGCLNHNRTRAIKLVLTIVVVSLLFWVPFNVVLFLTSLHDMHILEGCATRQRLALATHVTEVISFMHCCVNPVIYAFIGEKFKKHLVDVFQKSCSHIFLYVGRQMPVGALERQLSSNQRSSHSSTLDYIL

T2 sequence (G7NYJ2 entry or part of it): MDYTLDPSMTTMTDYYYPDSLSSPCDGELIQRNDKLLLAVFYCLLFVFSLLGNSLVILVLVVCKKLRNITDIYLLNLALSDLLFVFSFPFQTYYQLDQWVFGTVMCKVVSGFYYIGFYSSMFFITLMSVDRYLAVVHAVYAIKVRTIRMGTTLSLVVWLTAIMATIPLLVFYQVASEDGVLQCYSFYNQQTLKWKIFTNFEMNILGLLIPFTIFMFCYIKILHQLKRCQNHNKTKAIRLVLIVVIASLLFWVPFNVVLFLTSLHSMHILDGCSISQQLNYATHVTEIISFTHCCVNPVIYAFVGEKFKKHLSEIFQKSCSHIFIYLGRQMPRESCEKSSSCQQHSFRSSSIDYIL
T1 sequence (P51685 whole entry): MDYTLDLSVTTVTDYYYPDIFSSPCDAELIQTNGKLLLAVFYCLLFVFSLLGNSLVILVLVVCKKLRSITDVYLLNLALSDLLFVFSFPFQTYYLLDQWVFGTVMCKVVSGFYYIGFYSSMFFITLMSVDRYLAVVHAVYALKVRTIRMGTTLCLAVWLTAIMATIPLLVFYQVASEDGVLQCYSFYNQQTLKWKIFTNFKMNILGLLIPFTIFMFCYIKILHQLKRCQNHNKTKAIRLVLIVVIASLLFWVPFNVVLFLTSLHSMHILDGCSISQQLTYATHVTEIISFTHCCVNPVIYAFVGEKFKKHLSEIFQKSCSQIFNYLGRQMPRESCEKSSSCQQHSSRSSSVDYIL

Row | Binder | ADCC reporter huCCR8 EC50 [1] [nM] | ADCC reporter huCCR8 Max Fold Induction [1] [fold] | ADCC reporter cyCCR8 EC50 (cynomolgus CCR8 [2]) [nM] | ADCC reporter cyCCR8 Max Fold Induction (cynomolgus CCR8 [2]) [fold] | EC50 (cynomolgus CCR8 [3]) [nM] | EC50 [4] [nM] | EC50 of CCL1 blockade (CCR8 beta-arrestin reporter assay) [5] [µg/mL] | binding result (mouse CCR8) | binding result (rabbit CCR8) | binding result (rat CCR8)
1 | B1 | 0.12 | 12.8 | 0.79 | 12 | 5.27 | 2.33 | – | – | – | –
2 | B2 | 0.07 | 13.6 | 1.19 | 10 | 5.93 | 2.9 | – | – | – | –
3 | B3 | – | – | – | – | – | – | 23.1 | no binding | no binding | no binding
4 | B4 | 0.05 | 12.7 | 0.57 | 11.7 | 4.83 | 1.87 | – | – | – | –
5 | B5 | 0.1 | 15.7 | 0.75 | 12.3 | 2.37 | 1.51 | – | – | – | –
